According to US20140030216:

Key:
[1] = target: T1, recombinant rhIFNAR1 (≈110 kD), P17181
T1 chain: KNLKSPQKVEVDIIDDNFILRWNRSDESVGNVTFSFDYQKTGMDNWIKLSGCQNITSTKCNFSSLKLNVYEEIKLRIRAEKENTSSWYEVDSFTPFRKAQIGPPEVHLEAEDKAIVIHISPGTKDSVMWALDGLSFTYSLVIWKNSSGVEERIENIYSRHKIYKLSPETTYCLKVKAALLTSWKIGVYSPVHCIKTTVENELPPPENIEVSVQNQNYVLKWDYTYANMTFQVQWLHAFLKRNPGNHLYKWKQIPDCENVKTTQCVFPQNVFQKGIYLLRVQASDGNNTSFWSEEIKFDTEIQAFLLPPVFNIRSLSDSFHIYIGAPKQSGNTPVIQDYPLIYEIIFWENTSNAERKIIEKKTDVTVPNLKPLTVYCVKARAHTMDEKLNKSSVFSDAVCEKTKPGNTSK

rhMCP-3, P80098, sequence (P80098 24-99): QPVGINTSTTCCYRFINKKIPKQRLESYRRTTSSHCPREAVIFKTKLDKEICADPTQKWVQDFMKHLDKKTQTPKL

B1: Purified human MMP-2 (mixture of the proenzyme (50%) and the active form (50%)) (protein)
chain: YNFFPRKPKWDKNQITYRIIGYTPDLDPETVDDAFARAFQVWSDVTPLRFSRIHDGEADIMINFGRWEHGDGYPFDGKDGLLAHAFAPGTGVGGDSHFDDDELWTLGEGQVVRVKYGNADGEYCKFPFLFNGKEYNSCTDTGRSDGFLWCSTTYNFEKDGKYGFCPHEALFTMGGNAEGQPCKFPFRFQGTSYDSCTTEGRTDGYRWCGTTEDYDRDKKYGFCPETAMSTVGGNSEGAPCVFPFTFLGNKYESCTSAGRSDGKMWCATTANYDDDRKWGFCPDQGYSLFLVAAHEFGHAMGLEHSQDPGALMAPIYTYTKNFRLSQDDIKGIQELYGASPDIDLGTGPTPTLGPVTPEICKQDIVFDGIAQIRGEIFFFKDRFIWRTVTPRDKPMGPLLVATFWPELPEKIDAVYEAPQEEKAVFFAGNEYWIYSASTLERGYPKPLTSLGLPPDVQRVDAAFNWSKNKKTYIFAGDKFWRYNEVKKKMDPGFPKLIADAWNAIPDNLDAVVDLQGGGHSYFFKGAYYLKLENQSLKSVKFGSIKSDWLGC
MCP-3 degradation (MCP-3 content by ELISA after overnight incubation) (rhMCP-3, P80098): MMP-2 activity was controlled by measuring its capacity to degrade MCP-3 | degradation of rhIFNAR1 after overnight incubation with MMP-2 (Western blot) [1]: recombinant rhIFNAR1 (≈110 kD) incubated overnight with active MMP-2 was degraded by MMP-2
